Reference: patent US20190248902A1 (published 2019)
Changes are numbered by the printed parent chain.

T1: soluble human ASGR-1 carbohydrate binding domain (CBD; amino acid residues 154-281; N-terminal 6xHis tag) (human, UniProt P07306 154-281)
T1 construct: also called ASGR-1 CBD
T1 sequence: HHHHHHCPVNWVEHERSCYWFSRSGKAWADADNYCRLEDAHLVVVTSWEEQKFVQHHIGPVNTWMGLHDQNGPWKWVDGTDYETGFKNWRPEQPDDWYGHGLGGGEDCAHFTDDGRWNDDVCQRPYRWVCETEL

T2: Pig ASGR-1 (pig)
T2 construct: Expressed on HEK 293 cells or as membrane prep on beads; cDNA GenBank NM_001244458
T2 chain: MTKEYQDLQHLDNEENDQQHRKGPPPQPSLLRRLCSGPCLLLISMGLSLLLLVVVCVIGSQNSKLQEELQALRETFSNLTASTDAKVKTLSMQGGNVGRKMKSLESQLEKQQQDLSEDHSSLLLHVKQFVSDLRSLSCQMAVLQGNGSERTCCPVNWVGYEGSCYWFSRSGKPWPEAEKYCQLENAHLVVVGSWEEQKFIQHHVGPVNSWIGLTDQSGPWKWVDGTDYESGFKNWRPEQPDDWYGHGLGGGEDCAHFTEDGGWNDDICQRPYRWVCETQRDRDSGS

B1: 4A2 (antibody, V domains shown)
VH: QVQLVQSGTEVKKPGASVKVSCKASGYTFTNYDINWVRQATGQGLEWMGWMHPNSGNTGYAQKFQGRVTLTRNTSISTAYMELSSLRSEDTAVYYCASSSGWYYFDYWGQGTLVTVSS
VL: DIVMTQSPDSLAVSLGERATINCKSSQSILHSSNNNNYLAWFQQKPGQPPKLLLYWASTRESGVPDRFSGSGSGTDFTLTISSLQPEDVAVYYCQQYYNTPVTFGPGTKVGIK
notes: mAb
B2: 25A4 (antibody, V domains shown)
VH: B1 VH with Q3L, T9A, K13R, H52Y, L70M
VL: DIVMTQFPDSLAVSLGERATIKCKSSQSVLYSSHNNNYLAWYQQKPGQPPKLLLYWASTRESGVPDRFSGSGSGTEFTLTISSLEAEDVAVYYCQQYYSTPPTFGQGTKVEIK
notes: mAb
B3: 26C4 (antibody, V domains shown)
VH: B1 VH with T9A, T41S, H52N, K63R, L70M, S77N
VL: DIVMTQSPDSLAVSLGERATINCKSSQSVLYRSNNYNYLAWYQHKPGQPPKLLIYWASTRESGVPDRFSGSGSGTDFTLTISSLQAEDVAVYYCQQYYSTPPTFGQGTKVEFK
notes: mAb
B4: 29H8 (antibody, V domains shown)
VH: B1 VH with T9A, K12Q, H52N, K63R, L70M, T78A
VL: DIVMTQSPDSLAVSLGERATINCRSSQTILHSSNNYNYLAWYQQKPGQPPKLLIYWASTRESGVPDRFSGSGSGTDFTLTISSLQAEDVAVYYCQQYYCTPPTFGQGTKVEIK
notes: mAb
B5: 12D2 (antibody, V domains shown)
VH: EVQLVESGGGLVKPGGSLRLSCAASGFTFSSYSMNWVRQAPGKGLEWVSSISSSSSYIYYADSVKGRFTISRDNAKNSLYLQMNSLRAEDTAVYYCARLGDYWGQGTLVAVSS
VL: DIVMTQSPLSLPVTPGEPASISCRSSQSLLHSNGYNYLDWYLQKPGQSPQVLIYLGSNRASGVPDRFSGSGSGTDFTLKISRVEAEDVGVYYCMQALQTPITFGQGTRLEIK
notes: Tested as hybridoma supernatant at normalized concentration
B6: 5E5 (antibody, V domains shown)
VH: QVQLVESGGGVVQPGRSLRLSCAASGFTFSNYVMHWVRQAPGKGLEWVAVIWYDGSNKYYADSVKGRFTISRDNSKNTLYLQMNSLRAEDTAVYYCTREVYSSGWYDYGMDVWGQGTTVTVSS
VL: DIQMTQSPSSLSASVGDRVTITCRASQGIRNDLGWYQQKPGKAPKRLIYAASSLQSGVPSRFSGSGSGTEFTLTISSLQPEDFATYYCLQHYSYPRTFGQGTKVEVK
notes: mAb
B7: 7G4 (antibody, V domains shown)
VH: B6 VH with S30N, N84T, T97A, V100K, G104N
VL: B6 VL with K39R, F83S, Q90H, H91Q, V106I
notes: mAb
B8: 184E7 (antibody, V domains shown)
VH: QVQLVQSGAEVKTPGASVKVSCRASGYTFTSYNMHWVRQVPGQGLEWMGWINPNNGGSNYTQKFQGRVTMTRDTSISTAYMELSRLRSDDTAVYYCARKFGDWGQGTLVTVSS
VL: DIQMTQSPSSRSASIGERVTITCRASQGISNYLAWIQQKPGTAPKSLIYAASSLQSGVSSRFSGSGFGTDFTITISSVQREDFATYYCQQYNGYPFTFGHGTKVDIK
notes: as for B5
B9: 184E7 (antibody, V domains shown)
VH: B8 VH
VL: B8 VL
notes: mAb
B10: 48B12 (antibody, V domains shown)
VH: EVQLLESGGGLVQPGGSLRLSCAASGFTFSSYAMNWVRQAPGKGLEWVSAISGRGGNTFYADSVKGRFTISRDNSKNTLYLQMNSLRAEDTAVYYCAKRETYNWNYEGFDYWGQGTLVTVSS
VL: SYELTQPPSVSVSPGQTARITCSGDALPKKYAYWYQQKSGQAPVLVIYEDSKRPSGIPERFSGSSSGTMATLTISGAQVEDEADYYCNSTDSSGNHVVFGGGTKLTVL
notes: mAb
B11: 7E11 (antibody, V domains shown)
VH: QVQLVESGGGVVQPGRSLRLSCAASGFTFSSFGMHWVRQAPGKGLEWVAIIWHDGSNKYYADSVKGRFTISRDNSNNTLYLQMSSLRAEDTAVYYCARDLSMGGMDVWGQGTTVTVSS
VL: DIQMTQSPSSLSASVGDRVTIACRASQNIISYLNWYQQKPGKAPKFLIYTASSLQSGVPSRFSGSGSGTDFTLTISSLQPEDFAIYYCQQTYSTPLTFGGGTKVEIK
notes: mAb
B12: 4B1 (antibody, V domains shown)
VH: QVQLQESGPGLVKPSETLSLTCSVSGDSISSYSWSWIRQPAGKGLEWIGRIYTSGSTNYIPSLKSRITMSVDTSKKQFSLKLSSVTAADTAVYYCARDLKSSGCLFFDYWGQGTLVTVSS
VL: DIQMTQSPSSLSASVGDRVTITCRASHTIRTYLNWYQQKPGKAPKLLIYAASSLQSGVPSRINGSGSGTDFTLTITNLQPEDFATYYCQQSYNISFTFGPGTKVDIK
notes: as for B5
B13: 6G7 (antibody, V domains shown)
VH: QVQLVESGGGVVQPGRSLRLSCAASGFTFSSYGMHWVRQTPGKGLEWVAIISYVGKNKYYADSVKGRFTISRDNSKNTLYLQMNSLRAEDTAVYYCARRGNSYGGYGMDVWGQGTTVTVSS
VL: DIQMTQSPSSRSASVGDRVTITCQASQDISNYLNWCQQKPGKALKLLIYDASTLETGVPSRFSGSGSGTDFTFTISSVQPEDIATYYCQQYDNVPITFGQGTRLEIK
notes: mAb
B14: 4H6 (antibody, V domains shown)
VH: QVQLVQSGAEVKKPGASVKVSCKASGYTFTDYYLHWVRQAPGQGLEWMGWIHPNSGGTNYAQKFQGRVTMTRDTSISTAYMGLSSLRSDDTAVYYCARDGTSSFDYWGQGTLVTVSS
VL: DIQMTQSPSSVSASVGDRVTITCRASQGISRWLAWYQQKPGKAPKLLIYGASSLQSGVPSRFSGSGSGTDFTLTISSLQPEDFAIYYCQQANSFPFTFGPGTKVDIK
notes: as for B5
B15: 56E5 (antibody, V domains shown)
VH: QVQLVQSGAEVKKPGASVKVSCQASGYTFTGYHMHWVRQAPGQGLEWMGWINPNNNATNYAQKFQGRVTMTRDTSISTAYMELRRLRSDDTAVYHCARDGTSSFDYWGQGTLVTVSS
VL: B14 VL with S30R, R31K, G50A, I85T
notes: mAb
B16: 72G9 (antibody, V domains shown)
VH: EVQLVESGGGLVKPGGSLRLSCAASGFTFSSYSMNWVRQAPGKGLEWVSSISGSSSYIYYADSVKGRFTISRDNAKNSLYLQMNSLRAEDTAVYFCARGGSRGFDPWGQGTLVTVSS
VL: B14 VL with V11L, G28S, S30T, R31S, W32Y, A34N, G50T, I85T, A91S, N92H
notes: as for B5
B17: 72G9 (antibody, V domains shown)
VH: B16 VH
VL: B14 VL with V11L, G28S, S30T, R31S, W32Y, A34N, G50T, I85T, A91S, N92H
notes: mAb
B18: 22G5 (antibody, V domains shown)
VH: EVQLLESGGGLVQPGGSLRLSCAASGFTFSSYAMNWVRQAPGMGLEWVSVISRSGGYTYYADSVKGRFTISRDNSKNTLYLQMNSLRAEDTAVYYCASRLAVAGSEAFDIWGQGTLVTVSS
VL: DIQMTQSPSSLSASVGDRVTITCRASQNISSYLNWYQQKQGKAPKLLIYAASSLQNGVPSRFSGRGSGTDFTLTISSLQPEDFATYYCQQSYRTPLFTFGPGTKVDFK
notes: mAb

Assays:
[1] = target: T1, soluble human ASGR-1 carbohydrate …; experiment: Octet BLI, mAb on AR2G tips, 1:1 fit
Excerpt: To quantitate the binding affinity of specific antibodies for ASGR-1 (either purified from hybridoma supernatants or made recombinantly), association and dissociation rates can be measured using a ForteBio Octet instrument. […] Experimental kinetic results were globally fit to a 1:1 binding model in order to determine the association and dissociation rate constants as well as the equilibrium dissociation constant. Association and dissociation times were chosen to ensure that curvature was present during association curves and measured dissociation levels dropped at least 5% from starting levels. All Octet buffers contained 10 mM Tris (pH7.5), 150 mM NaCl, 1 mM CaCl₂), 0.10 mg/ml BSA and 0.13% Triton X-100. Octet assays were run at 27° C. Because this assay only measures binding to the ASGR-1 CBD, antibodies that recognize epitopes partially or entirely outside the CBD and/or recognize ASGR-1 in the context of a native ASGR complex, for example, as could occur on cell membranes, may not score as positive in this assay.

Pig ASGR-1 = target: T2, Pig ASGR-1; experiment: FACS on transfected HEK 293 cells or membrane preps on beads; Y = signal at least 2x irrelevant IgG
How it was run: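 Antibodies at normalized concentrations bound 1 h at 4° C to HEK 293 cells expressing each antigen, then Alexa Fluor 647 anti-Fc plus 7-AAD 15 min at 4° C, flow cytometry; empty-vector cells as negative. Alternatively, species ASGR-1 membrane preps on streptavidin beads, antibody 1 h RT, Alexa Fluor 488 anti-Fc; FACS buffer with 1 mM CaCl2 throughout.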

Kd [1] [nM]	binding result (Pig ASGR-1)	Binder
0.06	–	B1
0.03	–	B2
0.4	–	B3
1	–	B4
–	binds	B5
7.6	–	B6
0.9	–	B7
–	binds	B8
0.3	–	B9
0.3	–	B10
1.6	–	B11
–	binds	B12
2	–	B13
–	binds	B14
0.5	–	B15
–	binds	B16
0.5	–	B17
1.4	–	B18
